The source of these data is the supplement of paper PMC10567573.

B1: PKD2L1 (parent)
chain: VFIFYYVVEEILELHIHRLRYLSS
B2: KCNAB2 (parent)
chain: YVDVVFANRPDPNTPMEETVRAMT
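Also: lentivirally expressed fusions sorted by FACS into six bins by GFP to DsRed ratio, PSI derived from sequencing read proportions per bin multiplied by bin number.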

One data set covers variants of B1. The data set can be described thus: protein stability index of a GFP-peptide fusion (GPS, HEK-293T) (PSI 1-6); higher = more stable. Particulars: c terminus: a fixed tail appended.
In the case of VFIFYYVVEEILELHIHKLRYLSS [R18K], the protein stability index turned out to be 2.64. VFIFYYVVEEILELHIHQLRYLSS [R18Q]: the protein stability index turned out to be 2.37. Same read-out and setting: next, VFIFYYVVEEILELHIHVLRYLSS [R18V]: 1.65; VFIFYYVVEEILELHIHCLRYLSS [R18C]: 2.63. Take VFIFYYVVEEILELHIHLLRYLSS [R18L]: the protein stability index was determined as 3.78. On to VFIFYYVVEEILELHIHHLRYLSS [R18H], for which the protein stability index came out at 1.63. As for VFIFYYVVEEILELHIHMLRYLSS [R18M], the protein stability index was 3.01.

Regarding VFIFYYVVEEILELHIHELRYLSS [R18E], the protein stability index stood at 2.76.

Turning to VFIFYYVVEEILELHIQRLRYLSS [H17Q], the protein stability index was determined as 4.68.

On to VFIFYYVVEEILELHIMRLRYLSS [H17M], for which the protein stability index was 3.93. On to VFIFYYVVEEILELHIIRLRYLSS [H17I], for which the protein stability index stood at 2.97. As for VFIFYYVVEEILELHIDRLRYLSS [H17D], the protein stability index came out at 3. Regarding VFIFYYVVEEILELHIKRLRYLSS [H17K], the protein stability index worked out at 2.13. As for VFIFYYVVEEILELHIYRLRYLSS [H17Y], the protein stability index was 2.69. Still for that read-out and setting: next, VFIFYYVVEEILELHIERLRYLSS [H17E]: 1.77; VFIFYYVVEEILELHIVRLRYLSS [H17V]: 4.2. On the same count and under the same terms, next, VFIFYYVVEEILELHIFRLRYLSS [H17F]: 2.87; VFIFYYVVEEILELHISRLRYLSS [H17S]: 3.69. As to VFIFYYVVEEILELHILRLRYLSS [H17L], the protein stability index was 2.14. On to VFIFYYVVEEILELHIGRLRYLSS [H17G], for which the protein stability index amounted to 4.03.

In the case of VFIFYYVVEEILELHIPRLRYLSS [H17P], the protein stability index is 2.54.

For the variant VFIFYYVVEEILELHIHRLRYCSS [L22C], the protein stability index was determined as 3.65. Regarding VFIFYYVVEEILELHIHRLRYESS [L22E], the protein stability index came to 2.43. Consider VFIFYYVVEEILELHIHRLRYGSS [L22G], for which the protein stability index amounted to 2.34. Same read-out and setting: with VFIFYYVVEEILELHIHRLRYNSS [L22N] the figure was 1.32; with VFIFYYVVEEILELHIHRLRYPSS [L22P], 4.59. With VFIFYYVVEEILELHIHRLRYFSS [L22F], the protein stability index amounted to 3.34. With VFIFYYVVEEILELHIHRLRYISS [L22I], the protein stability index is 3.59. Take VFIFYYVVEEILELHIHRLRYTSS [L22T]: the protein stability index turned out to be 3.77.

As for VFIFYYVVEEILELHIHRLRYKSS [L22K], the protein stability index is 3.19. As for VFIFYYVVEEILELHIHRCRYLSS [L19C], the protein stability index was 2.7. Still for that read-out and setting: next, VFIFYYVVEEILELHIHRNRYLSS [L19N]: 2.31.

As to VFIFYYVVEEILELHIHRDRYLSS [L19D], the protein stability index was 2.8.

For VFIFYYVVEEILELHIHRWRYLSS [L19W], the protein stability index worked out at 3.75. As for VFIFYYVVEEILELHIHRTRYLSS [L19T], the protein stability index is 4.02. The same measure, in the same setting: next, VFIFYYVVEEILELHIHRMRYLSS [L19M]: 2.53. Consider VFIFYYVVEEILELHIHRLRFLSS [Y21F], for which the protein stability index is 3.66. Consider VFIFYYVVEEILELHIHRLRELSS [Y21E], for which the protein stability index turned out to be 2.27. VFIFYYVVEEILELHIHRLRKLSS [Y21K]: the protein stability index worked out at 2.84. In the case of VFIFYYVVEEILELHIHRLRTLSS [Y21T], the protein stability index worked out at 3.04. As for VFIFYYVVEEILELHIHRLRQLSS [Y21Q], the protein stability index came to 3.68. On the same count and under the same terms, next, VFIFYYVVEEILELHIHRLRMLSS [Y21M]: 4.01; VFIFYYVVEEILELHIHRLRGLSS [Y21G]: 3.65; VFIFYYVVEEILELHIHRLRDLSS [Y21D]: 1.89. Regarding VFIFYYVVEEILELHIHRLRRLSS [Y21R], the protein stability index was found to be 1.55.

On to VFIFYYVVEEILELHIHRLRLLSS [Y21L], for which the protein stability index was 2.06.

For VFIFYYVVEEILELHIHRLRHLSS [Y21H], the protein stability index worked out at 2.96. Same read-out and setting: next, VFIFYYVVEEILELHIHRLRNLSS [Y21N]: 1.61; VFIFYYVVEEILELHIHRLRPLSS [Y21P]: 3.02.

For the variant VFIFYYVVEEILELHIHRLRVLSS [Y21V], the protein stability index stood at 3.28. VFIFYYVVEEILELHIHRLWYLSS [R20W]: the protein stability index was found to be 2.38. The same measure, in the same setting: next, VFIFYYVVEEILELHIHRLVYLSS [R20V]: 3.27; VFIFYYVVEEILELHIHRLIYLSS [R20I]: 1.98; VFIFYYVVEEILELHIHRLDYLSS [R20D]: 4.23. On to VFIFYYVVEEILELHIHRLYYLSS [R20Y], for which the protein stability index was 2.76. Still for that read-out and setting: next, VFIFYYVVEEILELHIHRLFYLSS [R20F]: 2.85; VFIFYYVVEEILELHIHRLQYLSS [R20Q]: 1.89.

As to VFIFYYVVEEILELHIHRLHYLSS [R20H], the protein stability index came to 2.34. On the same count and under the same terms, with VFIFYYVVEEILELHIHRLKYLSS [R20K] the figure was 2.34; with VFIFYYVVEEILELHIHRLGYLSS [R20G], 2.12. As to VFIFYYVVEEILELHIHRLLYLSS [R20L], the protein stability index is 2.38. Turning to VFIFYYVVEEILELHIHRLTYLSS [R20T], the protein stability index was 3.91. Still for that read-out and setting: with VFIFYYVVEEILELHIHRLRYLIS [S23I] the figure was 4; with VFIFYYVVEEILELHIHRLRYLQS [S23Q], 3.46; with VFIFYYVVEEILELHIHRLRYLES [S23E], 2.12.

On to VFIFYYVVEEILELHIHRLRYLNS [S23N], for which the protein stability index was 1.82.

As for VFIFYYVVEEILELHIHRLRYLYS [S23Y], the protein stability index turned out to be 2.19. For VFIFYYVVEEILELHIHRLRYLTS [S23T], the protein stability index turned out to be 3.81. Consider VFIFYYVVEEILELHIHRLRYLRS [S23R], for which the protein stability index worked out at 4.53. On the same count and under the same terms, with VFIFYYVVEEILELHIHRLRYLCS [S23C] the figure was 1.99; with VFIFYYVVEEILELHIHRLRYLVS [S23V], 3.04; with VFIFYYVVEEILELHIHRLRYLFS [S23F], 2.05. For the variant VFIFYYVVEEILELHIHRLRYLST [S24T], the protein stability index came to 2.47. As for VFIFYYVVEEILELHIHRLRYLSN [S24N], the protein stability index turned out to be 3.95.

Consider VFIFYYVVEEILELHIHRLRYLSK [S24K], for which the protein stability index was 1.12. Consider VFIFYYVVEEILELHIHRLRYLSF [S24F], for which the protein stability index was determined as 2.37. Consider VFIFYYVVEEILELHIHRLRYLSP [S24P], for which the protein stability index turned out to be 2.94. Same read-out and setting: with VFIFYYVVEEILELHIHRLRYLSH [S24H] the figure was 3.15; with VFIFYYVVEEILELHIHRLRYLSL [S24L], 2.58. On the same count and under the same terms, next, VFIFYYVVEEILELHIHRLRYLSE [S24E]: 2.21.

In another data set the parent is B2. The description is as above. Particulars: c terminus: a fixed tail appended.
On to MVDVVFANRPDPNTPMEETVRAMT [Y1M], for which the protein stability index was determined as 3.69. On to TVDVVFANRPDPNTPMEETVRAMT [Y1T], for which the protein stability index turned out to be 4.31.

Take GVDVVFANRPDPNTPMEETVRAMT [Y1G]: the protein stability index turned out to be 4.12. As to CVDVVFANRPDPNTPMEETVRAMT [Y1C], the protein stability index stood at 2.52.

Take QVDVVFANRPDPNTPMEETVRAMT [Y1Q]: the protein stability index is 4.06. As to EVDVVFANRPDPNTPMEETVRAMT [Y1E], the protein stability index came out at 4.6. For LVDVVFANRPDPNTPMEETVRAMT [Y1L], the protein stability index came out at 3.4.

For the variant NVDVVFANRPDPNTPMEETVRAMT [Y1N], the protein stability index is 4.65. As for RVDVVFANRPDPNTPMEETVRAMT [Y1R], the protein stability index is 3.55.

Regarding SVDVVFANRPDPNTPMEETVRAMT [Y1S], the protein stability index was 4.28. As to FVDVVFANRPDPNTPMEETVRAMT [Y1F], the protein stability index was 1.94.

As to IVDVVFANRPDPNTPMEETVRAMT [Y1I], the protein stability index was found to be 2.7. Still for that read-out and setting: with VVDVVFANRPDPNTPMEETVRAMT [Y1V] the figure was 3.15; with DVDVVFANRPDPNTPMEETVRAMT [Y1D], 4.52.
